The target of assay [1] is human gp39 (human) (UniProt P29965).
The target is the same in assay [2]. This is another data set of the same source.
The target is the same in assay [3]. The source holds these as a separate data set.
For assay [4], the target named is gp39-CD8 fusion protein mutant E129/A (murine; human). The assay is described as follows: ELISA on captured mutant gp39-CD8. Background: ELISA stands for enzyme-linked immunosorbent assay.
Assay [5] deals with gp39-CD8 fusion protein mutant F201/A-E202/A (murine; human). The assay is described as follows: ELISA on captured mutant gp39-CD8.
In assay [6] the target is gp39-CD8 fusion protein mutant K143/A (murine; human). The assay is described as follows: ELISA on captured mutant gp39-CD8.
Assay [7] addresses gp39-CD8 fusion protein mutant N180/A (murine; human). The assay is described as follows: ELISA on captured mutant gp39-CD8.
The target in assay [8] is gp39-CD8 fusion protein mutant S131/A-T135/A (murine; human). In words: ELISA on captured mutant gp39-CD8.
Sequence of gp39-CD8 fusion protein mutant S131/A-T135/A (murine; human) (P01731 other isoform, or with tags, fused parts or gaps mutant): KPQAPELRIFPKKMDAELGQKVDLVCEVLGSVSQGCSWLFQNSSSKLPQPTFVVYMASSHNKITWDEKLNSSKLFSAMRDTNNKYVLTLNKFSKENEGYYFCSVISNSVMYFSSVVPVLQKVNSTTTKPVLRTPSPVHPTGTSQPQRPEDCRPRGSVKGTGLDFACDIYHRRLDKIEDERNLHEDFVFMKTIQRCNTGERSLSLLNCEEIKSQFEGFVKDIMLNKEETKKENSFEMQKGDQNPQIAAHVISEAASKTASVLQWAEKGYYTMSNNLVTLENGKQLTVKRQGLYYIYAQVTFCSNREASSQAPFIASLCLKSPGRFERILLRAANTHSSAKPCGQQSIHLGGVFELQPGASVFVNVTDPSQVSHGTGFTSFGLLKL
The target in assay [9] is gp39-CD8 fusion protein mutant Y145/A (murine; human). In words: ELISA on captured mutant gp39-CD8.
Sequence of gp39-CD8 fusion protein mutant Y145/A (murine; human) (P01731 other isoform, or with tags, fused parts or gaps mutant): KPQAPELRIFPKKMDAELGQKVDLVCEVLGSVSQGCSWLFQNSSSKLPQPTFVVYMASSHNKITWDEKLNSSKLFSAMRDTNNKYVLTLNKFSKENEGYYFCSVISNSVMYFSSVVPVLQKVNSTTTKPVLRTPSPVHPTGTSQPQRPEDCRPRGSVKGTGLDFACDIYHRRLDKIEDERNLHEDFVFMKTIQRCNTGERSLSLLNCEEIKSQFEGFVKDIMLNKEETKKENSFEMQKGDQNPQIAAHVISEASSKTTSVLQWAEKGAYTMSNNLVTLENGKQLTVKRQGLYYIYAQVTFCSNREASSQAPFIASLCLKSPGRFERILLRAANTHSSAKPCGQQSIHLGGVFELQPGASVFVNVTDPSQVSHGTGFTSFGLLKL
Assay [10] has as its target human gp39 (human) (UniProt P29965). The assay is described as follows: Scatchard transformation, BMS-10 Jurkat cells.
Assay [11] has the same target. In words: saturation binding of iodinated protein to gp39+ BMS-10 Jurkat cells.
Assay [12] has the same target. The assay is described as follows: saturation binding of radiolabeled protein to Jurkat cells constitutively expressing gp39.

As a reminder, the Kd is the free concentration of one partner at which half of the binding sites on the other are occupied at equilibrium, for simple one-to-one binding. Read a high Kd as lower affinity.

Sequence of human gp39 (human) (P29965 whole entry): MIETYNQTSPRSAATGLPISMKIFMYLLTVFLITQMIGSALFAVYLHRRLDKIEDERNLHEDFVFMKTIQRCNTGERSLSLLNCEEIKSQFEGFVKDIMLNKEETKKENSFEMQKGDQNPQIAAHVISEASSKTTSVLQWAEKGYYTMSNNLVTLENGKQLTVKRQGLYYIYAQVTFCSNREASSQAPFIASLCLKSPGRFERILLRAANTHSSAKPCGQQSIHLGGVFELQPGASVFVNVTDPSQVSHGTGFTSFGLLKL
Sequence of gp39-CD8 fusion protein mutant E129/A (murine; human) (P01731 other isoform, or with tags, fused parts or gaps mutant): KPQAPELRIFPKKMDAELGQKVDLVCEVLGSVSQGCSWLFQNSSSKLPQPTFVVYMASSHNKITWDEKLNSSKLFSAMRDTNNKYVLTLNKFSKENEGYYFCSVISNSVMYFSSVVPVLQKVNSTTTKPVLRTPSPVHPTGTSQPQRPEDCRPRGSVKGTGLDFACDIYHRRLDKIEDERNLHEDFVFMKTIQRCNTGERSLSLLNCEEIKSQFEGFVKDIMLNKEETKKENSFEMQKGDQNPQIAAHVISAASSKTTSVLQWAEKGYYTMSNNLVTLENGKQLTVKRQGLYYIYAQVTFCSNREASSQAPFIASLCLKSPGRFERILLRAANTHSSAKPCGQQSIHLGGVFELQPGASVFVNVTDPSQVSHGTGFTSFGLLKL
Sequence of gp39-CD8 fusion protein mutant N180/A (murine; human) (P01731 other isoform, or with tags, fused parts or gaps mutant): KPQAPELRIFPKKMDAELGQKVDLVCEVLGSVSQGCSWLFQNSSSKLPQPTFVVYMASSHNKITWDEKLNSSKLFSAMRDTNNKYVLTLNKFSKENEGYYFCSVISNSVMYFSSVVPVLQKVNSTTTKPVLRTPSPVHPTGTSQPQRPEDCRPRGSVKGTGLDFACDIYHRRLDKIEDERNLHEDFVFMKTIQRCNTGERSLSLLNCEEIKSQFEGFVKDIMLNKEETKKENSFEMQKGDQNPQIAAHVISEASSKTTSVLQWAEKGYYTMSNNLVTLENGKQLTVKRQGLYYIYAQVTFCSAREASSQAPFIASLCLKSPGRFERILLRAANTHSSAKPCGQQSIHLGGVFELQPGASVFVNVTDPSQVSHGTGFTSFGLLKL

In the assay with human gp39 (human) [1], negative control monoclonal antibody came in with an IgM produced, % of medium control (IgG in the next line) (% of medium control) of 87.9 and a [3H]thymidine incorporation of B cells, % of medium control (% of medium control) of 87.9.

B1: monoclonal antibody 39-1.106 (antibody, V domains shown)
VH: EVKLVESGGGLVKPGGSLKLSCTTSGFTFNNYAMSWVRQTPEKRLEWVASISSGDSTYYPDSVRGRFTISRDNARNILYLQMSSLRSEDTAMYYCARHYDYDSYAMDYWGQGTSVTVSS
VL: DIQMTQSPASLSASVGETVTITCRASETIYSYLAWYQQKQGRSPQLLVYNAKTLAEGVPSRFSGSGSGTQFSLKINSLQPEDFGSYYCQHHYNTPLTFGTGTKLELKR
B1: in the assay with human gp39 (human) [1], the IgM produced, % of medium control (IgG in the next line) (% of medium control) stood at 17.9. In the assay with human gp39 (human) [1], this molecule registered a [3H]thymidine incorporation of B cells, % of medium control (% of medium control) of 2.9. For the same molecule, the IgG synthesis by B cells at 20 µg/ml purified mAb, % of medium control (% of medium control) in the assay with human gp39 (human) [2] was found to be 8. Further, in the assay with human gp39 (human) [3], the IgG synthesis at 7.53 x 10^12 binding sites/ml, % of medium only control (% of medium only control) turned out to be 11. The binding relative to wild-type gp39 came to 130% in assay [4]; 9% in assay [5]; 52% in assay [6]; 144% in assay [7]; 113% in assay [8]; 124% in assay [9]. For the same molecule, the sites per cell (sites per cell) with human gp39 (human) [10] is 10000. The molecule also came in with a Kd with human gp39 (human) [11] of 0.4 nM. The fold greater affinity than 106 sFv-Ig in the assay with human gp39 (human) [12] was 3 fold.

B2: monoclonal antibody 39-1.7 (antibody, V domains shown)
VH: EVQLQQSGPELVKPGASVKMSCKASGYTFTDYYMKWVKQSHGKSLEWIGNINPNNGDTFFNQKFEGKATLTVDKSSSAAYMQLNSLTSEDSAVKKCARGPGTNYFDYWGQGTTLTVSS
VL: DIVLTQSPVSLAVSLGQRVTISCRASQSVSSSTNSYMHWYQQKPGQPPKLLIKYASNLESGVPARFSGSGSGTDFTLNIHPVEEEDTATYYCQHSWEIPFTFGSGTKLEIRR
Regarding B2, the IgM produced, % of medium control (IgG in the next line) (% of medium control) in the assay with human gp39 (human) [1] turned out to be 13.9. The molecule further had a [3H]thymidine incorporation of B cells, % of medium control (% of medium control) in the assay with human gp39 (human) [1] of 3.3. In the assay with human gp39 (human) [2], the IgG synthesis by B cells at 20 µg/ml purified mAb, % of medium control (% of medium control) came to 17. This molecule displayed an IgG synthesis at 7.53 x 10^12 binding sites/ml, % of medium only control (% of medium only control) with human gp39 (human) [3] of 12. Besides, the binding relative to wild-type gp39 in assay [4] is 70%; in [5], 112%; in [6], 5%; in [7], 93%; in [8] it was 89%; in [9] it was 106%.

The values are drawn from patent publication US5876950.
